Target: full-length WT JR-FL (gp160) Env (JR-FL WT) (HIV-1 isolate JR-FL (subtype B), UniProt P20871 32-848)
Experiment: cell-based or functional assay

B1: MAb 2G12 (antibody, V domains shown)
VH: EVQLVESGGGLVKAGGSLILSCGVSNFRISAHTMNWVRRVPGGGLEWVASISTSSTYRDYADAVKGRFTVSRDDLEDFVYLQMHKMRVEDTAIYYCARKGSDRLSDNDPFDAWGPGTVVTVSP
VL: VVMTQSPSTLSASVGDTITITCRASQSIETWLAWYQQKPGKAPKLLIYKASTLKTGVPSRFSGSGSGTEFTLTISGLQFDDFATYHCQHYAGYSATFGQGTRVEIKR
- neutralization of Env-pseudotyped virus infectivity (U87.CD4.CCR5 cells), mean IC50: 1.6 µg/mL

— US20100041875A1 (PROGENICS PHARMACEUTICAL INC AND CORNELL RESEARCH FOUNDATION, published 2010)
